In the supplement of paper PMC9112550, “Optimization of the antimicrobial peptide Bac7 by deep mutational scanning” (BMC Biology, 2022):

Each sequence was assayed on Escherichia coli TOP10 (assay: shrunken log2 fold change of peptide-encoding DNA abundance (4.5 h post-induction vs induction); higher = less antimicrobial activity (less host growth inhibition)). Conditions: time post-induction: 4.5 h; library: site-saturation at positions 5, 18, 19, 20.
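Note: peptides expressed intracellularly from a pBAD plasmid library in pooled LB shake-flask culture, induced with 0.3% L-arabinose, DNA abundance read by NGS, three biological replicates, DESeq2 with apeglm shrinkage.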

For RRIRFRPPRLPRPRPRPNQYPRP, which “shrunken log2 fold change” value is on record?
Its value is -1.01.

With RRIRDRPPRLPRPRPRPFCNPRP as the sequence, how does the “shrunken log2 fold change” value read?
Its value is -0.0411.

Which “shrunken log2 fold change” value does the source give for RRIRWRPPRLPRPRPRPDKLPRP here?
Its value is 0.161.

With RRIRMRPPRLPRPRPRPQERPRP as the sequence, how does the “shrunken log2 fold change” value read?
Its value is -0.00224.

For RRIRDRPPRLPRPRPRPKALPRP, which “shrunken log2 fold change” value is on record?
The value was -0.00674.

Which “shrunken log2 fold change” value does the source give for RRIRHRPPRLPRPRPRPQHWPRP here?
Its value is -0.00395.

For RRIRSRPPRLPRPRPRPEIRPRP, which “shrunken log2 fold change” value is on record?
The value was -0.0706.

How did the “shrunken log2 fold change” value turn out when RRIRHRPPRLPRPRPRPPHEPRP was run?
The value was 0.181.

RRIRQRPPRLPRPRPRPYPQPRP was tested. Which “shrunken log2 fold change” value did it give?
Its value is -0.00227.

Which “shrunken log2 fold change” value does the source give for RRIRLRPPRLPRPRPRPLHWPRP here?
The value was 1.5.

Which “shrunken log2 fold change” value does the source give for RRIRTRPPRLPRPRPRPIHFPRP here?
Its value is -0.00174.

Which “shrunken log2 fold change” value does the source give for RRIRARPPRLPRPRPRPVHLPRP here?
Its value is 0.215.

With RRIRFRPPRLPRPRPRPQVWPRP as the sequence, how does the “shrunken log2 fold change” value read?
Its value is 0.135.

How did the “shrunken log2 fold change” value turn out when RRIRWRPPRLPRPRPRPTQCPRP was run?
Its value is 0.115.

With RRIRKRPPRLPRPRPRPWGAPRP as the sequence, how does the “shrunken log2 fold change” value read?
The value was 0.449.

How did the “shrunken log2 fold change” value turn out when RRIRPRPPRLPRPRPRPRTDPRP was run?
Its value is 0.165.

How did the “shrunken log2 fold change” value turn out when RRIRMRPPRLPRPRPRPIYNPRP was run?
The value was -0.347.

With RRIRERPPRLPRPRPRPPINPRP as the sequence, how does the “shrunken log2 fold change” value read?
The value was -0.224.

Which “shrunken log2 fold change” value does the source give for RRIRFRPPRLPRPRPRPELQPRP here?
The value was 0.348.

With RRIRKRPPRLPRPRPRPILWPRP as the sequence, how does the “shrunken log2 fold change” value read?
The value was 0.149.

Which “shrunken log2 fold change” value does the source give for RRIRERPPRLPRPRPRPEGRPRP here?
The value was 0.583.

With RRIRHRPPRLPRPRPRPHMGPRP as the sequence, how does the “shrunken log2 fold change” value read?
Its value is -0.238.

For RRIRIRPPRLPRPRPRPVVKPRP, which “shrunken log2 fold change” value is on record?
Its value is -0.151.

Which “shrunken log2 fold change” value does the source give for RRIRVRPPRLPRPRPRPRNAPRP here?
The value was 0.225.

How did the “shrunken log2 fold change” value turn out when RRIRDRPPRLPRPRPRPTGEPRP was run?
Its value is 0.119.

For RRIRPRPPRLPRPRPRPNPCPRP, which “shrunken log2 fold change” value is on record?
The value was -0.165.

For RRIRDRPPRLPRPRPRPFVMPRP, which “shrunken log2 fold change” value is on record?
Its value is 0.0243.

RRIRYRPPRLPRPRPRPPNSPRP was tested. Which “shrunken log2 fold change” value did it give?
The value was -0.384.

With RRIRIRPPRLPRPRPRPYPIPRP as the sequence, how does the “shrunken log2 fold change” value read?
The value was -0.139.

For RRIRDRPPRLPRPRPRPFQVPRP, which “shrunken log2 fold change” value is on record?
The value was -0.609.

Which “shrunken log2 fold change” value does the source give for RRIRQRPPRLPRPRPRPAYIPRP here?
The value was -0.00563.

How did the “shrunken log2 fold change” value turn out when RRIRCRPPRLPRPRPRPCSKPRP was run?
The value was -0.0735.

With RRIRMRPPRLPRPRPRPGFFPRP as the sequence, how does the “shrunken log2 fold change” value read?
The value was 0.423.

With RRIRLRPPRLPRPRPRPHDIPRP as the sequence, how does the “shrunken log2 fold change” value read?
The value was -0.618.

With RRIRWRPPRLPRPRPRPKYHPRP as the sequence, how does the “shrunken log2 fold change” value read?
The value was 0.185.

RRIRDRPPRLPRPRPRPMVVPRP was tested. Which “shrunken log2 fold change” value did it give?
The value was -0.0202.

RRIRKRPPRLPRPRPRPMIWPRP was tested. Which “shrunken log2 fold change” value did it give?
Its value is -0.00177.

With RRIRNRPPRLPRPRPRPMEKPRP as the sequence, how does the “shrunken log2 fold change” value read?
Its value is 0.0048.

Which “shrunken log2 fold change” value does the source give for RRIRARPPRLPRPRPRPILQPRP here?
The value was 0.0186.

For RRIRARPPRLPRPRPRPMQNPRP, which “shrunken log2 fold change” value is on record?
Its value is 0.767.

RRIRYRPPRLPRPRPRPKLSPRP was tested. Which “shrunken log2 fold change” value did it give?
The value was -0.204.

How did the “shrunken log2 fold change” value turn out when RRIRIRPPRLPRPRPRPHDMPRP was run?
The value was -0.226.

How did the “shrunken log2 fold change” value turn out when RRIRARPPRLPRPRPRPAQNPRP was run?
Its value is 0.333.

How did the “shrunken log2 fold change” value turn out when RRIRWRPPRLPRPRPRPDDTPRP was run?
The value was 0.222.

Which “shrunken log2 fold change” value does the source give for RRIRSRPPRLPRPRPRPGCFPRP here?
The value was 0.225.

With RRIRSRPPRLPRPRPRPQFTPRP as the sequence, how does the “shrunken log2 fold change” value read?
The value was -0.714.

Which “shrunken log2 fold change” value does the source give for RRIRLRPPRLPRPRPRPCVFPRP here?
The value was -0.13.

RRIRLRPPRLPRPRPRPVNMPRP was tested. Which “shrunken log2 fold change” value did it give?
Its value is -0.306.

With RRIRPRPPRLPRPRPRPHQLPRP as the sequence, how does the “shrunken log2 fold change” value read?
The value was 0.0761.

How did the “shrunken log2 fold change” value turn out when RRIRERPPRLPRPRPRPMDNPRP was run?
The value was -0.626.

RRIRNRPPRLPRPRPRPMEYPRP was tested. Which “shrunken log2 fold change” value did it give?
The value was -0.0389.

For RRIRLRPPRLPRPRPRPVVSPRP, which “shrunken log2 fold change” value is on record?
Its value is -0.054.

Which “shrunken log2 fold change” value does the source give for RRIRGRPPRLPRPRPRPNRTPRP here?
Its value is -0.0769.

RRIRQRPPRLPRPRPRPNGSPRP was tested. Which “shrunken log2 fold change” value did it give?
The value was -0.00154.

How did the “shrunken log2 fold change” value turn out when RRIRERPPRLPRPRPRPFHHPRP was run?
Its value is 0.0149.

RRIRKRPPRLPRPRPRPVCHPRP was tested. Which “shrunken log2 fold change” value did it give?
Its value is 0.199.

For RRIRTRPPRLPRPRPRPHLTPRP, which “shrunken log2 fold change” value is on record?
The value was 0.101.

For RRIRTRPPRLPRPRPRPFKAPRP, which “shrunken log2 fold change” value is on record?
Its value is 0.0168.

How did the “shrunken log2 fold change” value turn out when RRIRTRPPRLPRPRPRPADGPRP was run?
Its value is -0.0563.

RRIRLRPPRLPRPRPRPCSGPRP was tested. Which “shrunken log2 fold change” value did it give?
The value was 0.0583.

RRIRHRPPRLPRPRPRPMREPRP was tested. Which “shrunken log2 fold change” value did it give?
The value was 0.237.

For RRIRWRPPRLPRPRPRPYKEPRP, which “shrunken log2 fold change” value is on record?
The value was -0.387.

How did the “shrunken log2 fold change” value turn out when RRIRTRPPRLPRPRPRPFTCPRP was run?
Its value is 0.0121.

How did the “shrunken log2 fold change” value turn out when RRIRSRPPRLPRPRPRPIEWPRP was run?
Its value is 0.0274.

Which “shrunken log2 fold change” value does the source give for RRIRQRPPRLPRPRPRPWDCPRP here?
Its value is -0.383.

With RRIRRRPPRLPRPRPRPFTRPRP as the sequence, how does the “shrunken log2 fold change” value read?
Its value is -0.0292.

RRIRNRPPRLPRPRPRPQEPPRP was tested. Which “shrunken log2 fold change” value did it give?
Its value is 0.084.

Which “shrunken log2 fold change” value does the source give for RRIRCRPPRLPRPRPRPDWQPRP here?
The value was -0.0213.

With RRIRDRPPRLPRPRPRPNKRPRP as the sequence, how does the “shrunken log2 fold change” value read?
The value was -0.14.

For RRIRLRPPRLPRPRPRPWPGPRP, which “shrunken log2 fold change” value is on record?
Its value is 0.0987.

RRIRPRPPRLPRPRPRPMWKPRP was tested. Which “shrunken log2 fold change” value did it give?
The value was -0.146.

Which “shrunken log2 fold change” value does the source give for RRIRLRPPRLPRPRPRPRRCPRP here?
Its value is 0.356.

Which “shrunken log2 fold change” value does the source give for RRIRNRPPRLPRPRPRPCNRPRP here?
The value was -0.00992.

With RRIRNRPPRLPRPRPRPEKGPRP as the sequence, how does the “shrunken log2 fold change” value read?
Its value is -0.0357.

Which “shrunken log2 fold change” value does the source give for RRIRYRPPRLPRPRPRPFAFPRP here?
Its value is -1.05.
